Experimental data as given in publication PMC4824073, “Ribonucleoprotein particles of bacterial small non-coding RNA IsrA (IS61 or McaS) and its interaction with RNA polymerase core may link transcription to mRNA fate”.

Columns and labels:
RNAP core enzyme = RNAP core enzyme (UniProt P0A7Z4;P0A8V2;P0A8T7 1-329;1-1342;1-1407); assay: EMSA; heparin added after complex formation (heparin-resistant); EMSA (Figs 3B, 4): 1x buffer 15 mM Tris-HCl pH 8, 100 mM KCl, 1 mM MgCl2, 1 mM DTT, 1 ug yeast RNA, 37 C 10-20 min, then heparin on ice; Fig 3A as in ref 29 without yeast RNA; pull-down: 10 mM Tris-HCl pH 7.8, 200 mM KCl, 1 mM MgCl2, 5% glycerol, 1 mM DTT, 4 C, heparin 100 ug/ml wash; conditions: protein: native; chain copies: 2;1;1; label: 32P; three stem-loops
RNAP core enzyme;sigma70 = RNAP core enzyme;sigma70 (Escherichia coli?;Escherichia coli?, UniProt P0A7Z4;P0A8V2;P0A8T7;P00579 1-329;1-1342;1-1407;1-613, |); assay: as above; conditions: protein: native;recombinant; tags: ;; chain copies: 2;1;1;1; label: 32P; three stem-loops
[1] = molecular target: RNAP (core or holo not stated) (UniProt P0A7Z4;P0A8V2;P0A8T7 1-329;1-1342;1-1407); assay: competition; unlabeled IsrA 15-fold excess vs labeled IsrA; yeast RNA, heparin after; EMSA (Figs 3B, 4): 1x buffer 15 mM Tris-HCl pH 8, 100 mM KCl, 1 mM MgCl2, 1 mM DTT, 1 ug yeast RNA, 37 C 10-20 min, then heparin on ice; Fig 3A as in ref 29 without yeast RNA; pull-down: 10 mM Tris-HCl pH 7.8, 200 mM KCl, 1 mM MgCl2, 5% glycerol, 1 mM DTT, 4 C, heparin 100 ug/ml wash; conditions: protein: native; chain copies: 2;1;1; label: 32P; three stem-loops

Measured: binding result

Chain of RNAP core enzyme (P0A7Z4 whole entry, chain 1 of 3): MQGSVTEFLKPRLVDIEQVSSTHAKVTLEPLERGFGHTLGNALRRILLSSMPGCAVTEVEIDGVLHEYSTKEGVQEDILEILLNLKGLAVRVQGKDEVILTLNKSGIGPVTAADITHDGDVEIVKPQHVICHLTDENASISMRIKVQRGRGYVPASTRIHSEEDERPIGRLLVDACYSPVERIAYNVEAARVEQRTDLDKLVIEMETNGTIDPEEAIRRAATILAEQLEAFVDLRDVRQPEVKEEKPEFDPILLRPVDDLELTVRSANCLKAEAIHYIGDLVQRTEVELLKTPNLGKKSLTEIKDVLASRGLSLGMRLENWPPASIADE
Chain of RNAP core enzyme (P0A8V2 whole entry, chain 2 of 3): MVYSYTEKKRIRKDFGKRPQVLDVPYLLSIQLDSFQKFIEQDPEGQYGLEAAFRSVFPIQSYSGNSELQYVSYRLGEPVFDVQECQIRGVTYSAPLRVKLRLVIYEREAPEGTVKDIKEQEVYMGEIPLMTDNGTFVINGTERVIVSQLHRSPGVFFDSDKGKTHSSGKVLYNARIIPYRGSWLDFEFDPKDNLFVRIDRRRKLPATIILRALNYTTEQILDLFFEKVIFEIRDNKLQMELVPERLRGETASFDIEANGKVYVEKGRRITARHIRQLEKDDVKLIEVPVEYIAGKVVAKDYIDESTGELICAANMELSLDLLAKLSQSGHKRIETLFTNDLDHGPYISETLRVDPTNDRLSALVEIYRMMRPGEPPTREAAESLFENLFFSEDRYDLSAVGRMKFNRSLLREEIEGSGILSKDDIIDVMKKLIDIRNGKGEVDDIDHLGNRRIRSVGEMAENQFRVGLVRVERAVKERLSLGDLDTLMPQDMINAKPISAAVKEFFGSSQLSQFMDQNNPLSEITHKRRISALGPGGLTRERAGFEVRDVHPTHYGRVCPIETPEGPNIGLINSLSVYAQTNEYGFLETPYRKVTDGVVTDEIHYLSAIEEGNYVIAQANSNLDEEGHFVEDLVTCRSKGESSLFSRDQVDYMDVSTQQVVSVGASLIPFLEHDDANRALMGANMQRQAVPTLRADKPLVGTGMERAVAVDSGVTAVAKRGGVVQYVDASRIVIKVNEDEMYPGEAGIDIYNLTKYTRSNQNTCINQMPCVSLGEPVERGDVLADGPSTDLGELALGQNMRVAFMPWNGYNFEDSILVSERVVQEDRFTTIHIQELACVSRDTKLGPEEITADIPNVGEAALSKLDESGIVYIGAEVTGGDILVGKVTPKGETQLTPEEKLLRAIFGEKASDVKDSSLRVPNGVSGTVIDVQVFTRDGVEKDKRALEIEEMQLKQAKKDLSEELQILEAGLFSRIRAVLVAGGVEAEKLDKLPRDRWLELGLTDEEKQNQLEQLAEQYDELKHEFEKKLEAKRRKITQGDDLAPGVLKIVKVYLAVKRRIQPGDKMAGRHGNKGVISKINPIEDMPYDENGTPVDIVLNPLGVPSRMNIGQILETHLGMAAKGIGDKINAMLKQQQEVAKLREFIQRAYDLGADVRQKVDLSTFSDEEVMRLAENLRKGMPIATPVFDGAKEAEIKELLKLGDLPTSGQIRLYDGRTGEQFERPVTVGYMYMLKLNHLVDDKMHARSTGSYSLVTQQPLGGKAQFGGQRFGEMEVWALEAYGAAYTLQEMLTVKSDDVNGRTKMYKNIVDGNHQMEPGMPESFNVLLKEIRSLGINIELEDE
Chain of RNAP core enzyme (P0A8T7 whole entry, chain 3 of 3): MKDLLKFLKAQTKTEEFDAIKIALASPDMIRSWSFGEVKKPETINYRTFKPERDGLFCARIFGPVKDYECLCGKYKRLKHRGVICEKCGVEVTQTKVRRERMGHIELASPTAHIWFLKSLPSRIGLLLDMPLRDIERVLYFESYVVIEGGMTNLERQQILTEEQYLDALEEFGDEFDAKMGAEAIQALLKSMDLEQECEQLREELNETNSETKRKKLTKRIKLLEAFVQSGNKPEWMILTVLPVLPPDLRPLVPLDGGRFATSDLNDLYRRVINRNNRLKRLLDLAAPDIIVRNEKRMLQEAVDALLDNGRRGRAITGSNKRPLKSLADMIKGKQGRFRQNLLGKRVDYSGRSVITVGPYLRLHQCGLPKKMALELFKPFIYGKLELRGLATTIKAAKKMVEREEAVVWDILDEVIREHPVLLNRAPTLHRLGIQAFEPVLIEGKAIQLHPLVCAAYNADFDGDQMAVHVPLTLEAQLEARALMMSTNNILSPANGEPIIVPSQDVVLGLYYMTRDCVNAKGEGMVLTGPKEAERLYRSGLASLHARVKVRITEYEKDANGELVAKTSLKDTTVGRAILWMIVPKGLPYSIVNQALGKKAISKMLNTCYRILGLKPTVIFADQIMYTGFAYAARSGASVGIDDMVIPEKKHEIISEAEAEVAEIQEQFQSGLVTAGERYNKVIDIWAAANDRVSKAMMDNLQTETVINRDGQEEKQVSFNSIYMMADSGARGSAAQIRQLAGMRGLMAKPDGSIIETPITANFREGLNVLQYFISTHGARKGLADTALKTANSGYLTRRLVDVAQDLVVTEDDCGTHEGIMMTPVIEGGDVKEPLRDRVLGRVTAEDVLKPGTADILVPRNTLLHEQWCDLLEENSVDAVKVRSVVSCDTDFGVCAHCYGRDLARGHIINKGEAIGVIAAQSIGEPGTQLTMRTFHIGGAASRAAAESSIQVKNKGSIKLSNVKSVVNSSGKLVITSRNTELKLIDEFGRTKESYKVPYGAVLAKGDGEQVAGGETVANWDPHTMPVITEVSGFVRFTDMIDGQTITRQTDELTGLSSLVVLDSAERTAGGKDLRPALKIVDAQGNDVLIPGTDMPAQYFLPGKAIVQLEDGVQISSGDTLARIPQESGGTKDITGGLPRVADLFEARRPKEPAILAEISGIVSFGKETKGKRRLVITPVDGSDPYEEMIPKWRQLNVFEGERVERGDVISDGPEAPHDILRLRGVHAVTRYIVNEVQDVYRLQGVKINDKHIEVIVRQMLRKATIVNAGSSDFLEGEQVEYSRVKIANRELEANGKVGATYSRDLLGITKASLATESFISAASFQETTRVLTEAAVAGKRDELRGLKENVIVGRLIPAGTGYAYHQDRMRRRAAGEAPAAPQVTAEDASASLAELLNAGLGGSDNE

B1: IsrA (IS61, McaS) (structured_RNA)
RNA: ACCGGCGCAGAGGAGACAAUGCCGGAUUUAAGACGCGGAUGCACUGCUGUGUGUACUGUAGAGUCUGGCGGAUGUCGACAGACUCUAUUUUUUU
binds: all assays above
